The values that follow come from publication PMC7027753, “Interaction of N‐acetyl‐L‐glutamate kinase with the PII signal transducer in the non‐photosynthetic alga Polytomella parva: Co‐evolution towards a hetero‐oligomeric enzyme” (The Febs Journal, 2019).

In data set [1] the target is Chlamydomonas reinhardtii NAGK protein (Chlamydomonas reinhardtii). As to the kind of experiment: SEC-MALS; Superose 6 Increase 10/300 GL; 10 mM Tris pH 7.8, 300 mM NaCl, 2 mM MgCl2, 0.02% NaN3, 2% glycerol; proteins alone or PII mixed in excess with NAGK (4 : 1 monomeric concentrations), with or without 5 mM glutamine; fractions checked by SDS/PAGE. On the technique in general: SEC sorts molecules by how far they enter the pores of the column.

Data set [2] has as its target Polytomella parva PII protein (Polytomella parva). Described as above.
Data set [3] has as its target Chlamydomonas reinhardtii NAGK protein (Chlamydomonas reinhardtii). As to the kind of experiment: SPR; His6-NAGK immobilised on a Ni2+-loaded NTA chip (FC2), strep-tagged PII injected as analyte (50-1000 nM), 25 °C, HBS (10 mM HEPES, 150 mM NaCl, 2 mM MgCl2, 0.005% NP-40, pH 7.5), FC2-FC1; without effector molecules; Kd estimated from ΔRU.
Data set [4] deals with Polytomella parva N-acetyl-L-glutamate kinase (Polytomella parva) (UniProt A6XGV3). The description is as above.
A further data set has as its target T1, CrPII-PpaNAGK complex (Polytomella parva, UniProt A0A2K3DLS9+A6XGV3).
T1 construct: heterologous two-species complex, mixed equimolar: His6-PpaNAGK from residue 41 and CrPII with C-terminal Strep tag; NAGK holds arginine, PII holds 2-oxoglutarate
As to the kind of experiment: coupled pyruvate kinase / lactate dehydrogenase NADH assay, […] nm. It is filed as biochemical.

Another data set has as its target T2, CrNAGK (Chlamydomonas reinhardtii, UniProt A8HPI1).
T2 construct: gene CHLRE_01g015000v5; N-terminal His6 tag, E. coli LEMO-21(DE3), Ni-NTA; hexamer
T2 sequence (A8HPI1 44-340): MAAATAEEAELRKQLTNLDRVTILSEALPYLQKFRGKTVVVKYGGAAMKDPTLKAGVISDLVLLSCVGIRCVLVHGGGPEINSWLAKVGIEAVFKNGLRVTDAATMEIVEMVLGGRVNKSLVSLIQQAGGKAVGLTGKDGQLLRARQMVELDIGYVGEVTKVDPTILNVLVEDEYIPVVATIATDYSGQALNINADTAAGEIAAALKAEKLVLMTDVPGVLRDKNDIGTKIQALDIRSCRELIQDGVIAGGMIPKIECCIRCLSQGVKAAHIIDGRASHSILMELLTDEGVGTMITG
The data set is described as above. It is filed as biochemical.

In a further data set the target is T3, CrPII-CrNAGK (Chlamydomonas reinhardtii, UniProt A8HPI1).
T3 construct: gene CHLRE_01g015000v5; His6-CrNAGK and CrPII with C-terminal Strep tag, mixed equimolar; E. coli expressed; with Nitrogen regulatory protein P-II, chloroplastic (PII signal transducer)
The data set is described as above. Particulars: read-out: Arg-IC50. It counts as biochemical.

The target of data set [5] is T4, PpaPII-CrNAGK complex.
T4 construct: gene NAGK; heterologous two-species complex, mixed equimolar: His6-CrNAGK and PpaPII from residue 50 with C-terminal Strep tag; NAGK holds arginine, PII holds glutamine
The description is as above. Conditions: 50 mM NAG, 5 mM ATP, 20 mM MgCl2, pH 7.5; with PpaPII, no Gln; allosteric site of NAGK; unit implied in the sentence. It is filed as biochemical, Chlamydomonas reinhardtii (NAGK); Polytomella parva (PII).

For data set [6], the target named is T4, PpaPII-CrNAGK complex. The data set is described as above. It is filed as biochemical, Chlamydomonas reinhardtii (NAGK); Polytomella parva (PII). Conditions: activation of complex inhibited by 0.12 mM arginine; 50 mM NAG, 5 mM ATP, pH 7.5; Gln site in PII Q-loop, allosteric.
Substrate in the data set “purified protein”: CC(=O)N[C@@H](CCC(=O)O)C(=O)O
As to the kind of experiment: purified protein. It is filed as biochemical, Polytomella parva. Particulars: 5 mM ATP, 20 mM MgCl2, 50 mM KCl, 50 mM imidazole pH 7.5, no arginine, no PII.

Data set [7] concerns the molecule itself. As to the kind of experiment: SEC-MALS; Superose 6 Increase 10/300 GL; 10 mM Tris pH 7.8, 300 mM NaCl, 2 mM MgCl2, 0.02% NaN3, 2% glycerol; proteins alone or PII mixed in excess with NAGK (4 : 1 monomeric concentrations), with or without 5 mM glutamine; fractions checked by SDS/PAGE.

T1 sequence (A0A2K3DLS9 63-205, one chain of several): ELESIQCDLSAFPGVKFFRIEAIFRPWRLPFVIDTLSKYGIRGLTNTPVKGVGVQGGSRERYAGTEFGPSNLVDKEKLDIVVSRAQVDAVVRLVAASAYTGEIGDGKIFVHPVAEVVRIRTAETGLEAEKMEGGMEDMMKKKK

As for “Chlamydomonas reinhardtii NAGK protein (enzyme)”, in [1], the stoichiometry N came out at 6.

“Polytomella parva PII protein (natural protein)” registered a stoichiometry N in [2] of 3. The equilibrium dissociation constant (Kd) in data set [3] was 86.3 nM. In [4], the Kd was 93.8 nM, the percent of PpaPII-PpaNAGK complex dissociation from the sensor chip at 330 sec after the end of the injection phase (RU at 110 sec taken as 100%) is 60.7% and the percent of PpaPII-PpaNAGK complex dissociation from the sensor chip at 660 sec after the end of the injection phase (RU at 110 sec taken as 100%) was 41.9%.

Turning to `N=C(N)NCCC[C@H](N)C(=O)O` [arginine], the IC50 was determined as 680 ± 150 µM at CrPII-PpaNAGK complex, 120 ± 30 µM on CrNAGK, 250 ± 10 µM at CrPII-CrNAGK and 70 ± 10 µM at PpaPII-CrNAGK complex [5].

For the molecule `NC(=O)CC[C@H](N)C(=O)O` [glutamine], a half-maximal response at PpaPII-CrNAGK complex [6] (EC50) required 1.1 mM.

B1: Polytomella parva N-acetyl-L-glutamate kinase (enzyme, UniProt A6XGV3 41-329, looked up)
chain: TSDKKELTNLDRVTILSEALPYLQKFRGKTIVIKYGGAAMKDPTLKAGVITDLVLLNCVGIRTVLVHGGGPEINSWLSKVGIKPNFKNGLRVTDSATMDIVEMVLGGRVNKSLVSLIQQAGGRGVGLTGKDGQLLKARQMTELDIGHVGEVTKVDPTILNVMVNDGYIPVVATIASDPAGQALNINADTAAGEIAAALKAKKLVLMTDVPGVLRDKNDIKTKIHSLDIRGCRELIKDGIIAGGMIPKIECCIRCLAQGVDAAHIVDGRAKHSILMELLTDEGVGTMITG
notes: the full-length polypeptide has 329 amino acids; The discussion gives the transit peptide as 1-21, the results and methods as 1-40; also called PpaNAGK; NAGK; not shown: His6, N-terminal, kept
For the molecule B1, in “purified protein”, the Km was found to be 2.35 ± 0.22 mM and the kcat is 211.5 ± 4.1 s⁻¹. Moreover, in data set [7], the “stoichiometry N” value amounted to 6.

As usually defined, the stoichiometry N is a count of units in the complex or per binding partner. One may read the Kd as the equilibrium constant for the complex coming apart. By IC50 is commonly meant the midpoint of a concentration-inhibition curve. By EC50 is commonly meant the concentration at which the effect is half-maximal. High values mean a less potent agent, low ones a more potent agent. Broadly, the Km is the concentration of substrate that gives half-maximal velocity. Usually kcat stands for the maximal rate divided by the concentration of active sites.
